This passage reports EGFR-L858R mean, Wt/L858R and EGFR-Wt mean results from patent US9958461B2, “Detection of protein to protein interactions” (THE GOVERNING COUNCIL OF THE UNIVERSITY OF TORONTO, priority 2013, dated 2018).

Assay [1] has as its target T1, EGFR-L858R (Homo sapiens, UniProt P00533, L858R).
T1 construct: with the advantage of testing full-length integral membrane proteins; (GGGGS)2 linker-Cub (human ubiquitin aa 35-76)-GAL4(1-147)-mNFkB(364-550) (C); expressed in transfected cells
The assay is described as follows: MaMTH EGFR-interactor screen, lentiviral preys against EGFR-L858R bait (interaction score). Conditions: MaMTH interaction score of prey with EGFR-L858R bait. The assay is classed as cell-based. The procedure, abridged: (§1)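 Interaction score is the luciferase fold-change versus averaged negative controls (Fabp5, Pex19, Pex7, GABBR2), with >1 called interacting. Luciferase was measured 24 h after triplicate bait transfection. This followed single-copy prey transduction (MOI ~0.3-0.4) of GAL4UAS-luciferase HEK293T cells and ≥48 h puromycin selection.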

Assay [2] has as its system EGFR-Wt. Put plainly: MaMTH EGFR-interactor screen, lentiviral preys against EGFR-wildtype bait (interaction score). It is filed as cell-based, human. Conditions: ratio of EGFR-Wt mean to EGFR-L858R mean interaction score. The procedure, abridged: as §1
Assay [3] deals with T2, EGFR-Wt (Homo sapiens, UniProt P00533).
T2 construct: with the advantage of testing full-length integral membrane proteins; (GGGGS)2 linker-Cub (human ubiquitin aa 35-76)-GAL4(1-147)-mNFkB(364-550) (C); expressed in transfected cells
The description is as above. The assay is classed as cell-based. Conditions: MaMTH interaction score of prey with EGFR-Wt bait, mean. The procedure, abridged:
as §1

B1: STAP2 (protein, UniProt Q9UGK3 1-403, looked up)
Signal-transducing adaptor …: MASALRPPRVPKPKGVLPSHYYESFLEKKGPCDRDYKKFWAGLQGLTIYFYNSNRDFQHVEKLNLGAFEKLTDEIPWGSSRDPGTHFSLILRDQEIKFKVETLECREMWKGFILTVVELRVPTDLTLLPGHLYMMSEVLAKEEARRALETPSCFLKVSRLEAQLLLERYPECGNLLLRPSGDGADGVSVTTRQMHNGTHVVRHYKVKREGPKYVIDVEQPFSCTSLDAVVNYFVSHTKKALVPFLLDEDYEKVLGYVEADKENGENVWVAPSAPGPGPAPCTGGPKPLSPASSQDKLPPLPPLPNQEENYVTPIGDGPAVDYENQDVASSSWPVILKPKKLPKPPAKLPKPPVGPKPEPKVFNGGLGRKLPVSSAQPLFPTAGLADMTAELQKKLEKRRALEH
On to B1, for which, in assay [1], the EGFR-L858R mean was determined as 1.49. Moreover, the Wt/L858R in assay [2] is 1.86. Besides, the EGFR-Wt mean in assay [3] stood at 2.76.

B2: ITK (protein, UniProt Q08881 1-620, looked up)
Tyrosine-protein kinase …: MNNFILLEEQLIKKSQQKRRTSPSNFKVRFFVLTKASLAYFEDRHGKKRTLKGSIELSRIKCVEIVKSDISIPCHYKYPFQVVHDNYLLYVFAPDRESRQRWVLALKEETRNNNSLVPKYHPNFWMDGKWRCCSQLEKLATGCAQYDPTKNASKKPLPPTPEDNRRPLWEPEETVVIALYDYQTNDPQELALRRNEEYCLLDSSEIHWWRVQDRNGHEGYVPSSYLVEKSPNNLETYEWYNKSISRDKAEKLLLDTGKEGAFMVRDSRTAGTYTVSVFTKAVVSENNPCIKHYHIKETNDNPKRYYVAEKYVFDSIPLLINYHQHNGGGLVTRLRYPVCFGRQKAPVTAGLRYGKWVIDPSELTFVQEIGSGQFGLVHLGYWLNKDKVAIKTIREGAMSEEDFIEEAEVMMKLSHPKLVQLYGVCLEQAPICLVFEFMEHGCLSDYLRTQRGLFAAETLLGMCLDVCEGMAYLEEACVIHRDLAARNCLVGENQVIKVSDFGMTRFVLDDQYTSSTGTKFPVKWASPEVFSFSRYSSKSDVWSFGVLMWEVFSEGKIPYENRSNSEVVEDISTGFRLYKPRLASTHVYQIMNHCWKERPEDRPAFSRLLRQLAEIAESGL
Regarding B2, the EGFR-L858R mean in assay [1] worked out at 0.94. The Wt/L858R in assay [2] is given as 2.35. In assay [3], the EGFR-Wt mean is 2.21.

B3: SLA (protein, UniProt Q13239 2-276, looked up)
Src-like-adapter: GNSMKSTPAPAERPLPNPEGLDSDFLAVLSDYPSPDISPPIFRRGEKLRVISDEGGWWKAISLSTGRESYIPGICVARVYHGWLFEGLGRDKAEELLQLPDTKVGSFMIRESETKKGFYSLSVRHRQVKHYRIFRLPNNWYYISPRLTFQCLEDLVNHYSEVADGLCCVLTTPCLTQSTAAPAVRASSSPVTLRQKTVDWRRVSRLQEDPEGTENPLGVDESLFSYGLRESIASYLSLTSEDNTSFDRKKKSISLMYGGSKRKSSFFSSPPYFED
In assay [1], B3 returned an EGFR-L858R mean of 1.16. Further, the Wt/L858R in assay [2] was found to be 2.40. The same molecule returned an EGFR-Wt mean in assay [3] of 2.78.

B4: PTPN12 (protein, UniProt Q05209 1-780, looked up)
Tyrosine-protein phosphatase …: MEQVEILRKFIQRVQAMKSPDHNGEDNFARDFMRLRRLSTKYRTEKIYPTATGEKEENVKKNRYKDILPFDHSRVKLTLKTPSQDSDYINANFIKGVYGPKAYVATQGPLANTVIDFWRMIWEYNVVIIVMACREFEMGRKKCERYWPLYGEDPITFAPFKISCEDEQARTDYFIRTLLLEFQNESRRLYQFHYVNWPDHDVPSSFDSILDMISLMRKYQEHEDVPICIHCSAGCGRTGAICAIDYTWNLLKAGKIPEEFNVFNLIQEMRTQRHSAVQTKEQYELVHRAIAQLFEKQLQLYEIHGAQKIADGVNEINTENMVSSIEPEKQDSPPPKPPRTRSCLVEGDAKEEILQPPEPHPVPPILTPSPPSAFPTVTTVWQDNDRYHPKPVLHMVSSEQHSADLNRNYSKSTELPGKNESTIEQIDKKLERNLSFEIKKVPLQEGPKSFDGNTLLNRGHAIKIKSASPCIADKISKPQELSSDLNVGDTSQNSCVDCSVTQSNKVSVTPPEESQNSDTPPRPDRLPLDEKGHVTWSFHGPENAIPIPDLSEGNSSDINYQTRKTVSLTPSPTTQVETPDLVDHDNTSPLFRTPLSFTNPLHSDDSDSDERNSDGAVTQNKTNISTASATVSAATSTESISTRKVLPMSIARHNIAGTTHSGAEKDVDVSEDSPPPLPERTPESFVLASEHNTPVRSEWSELQSQERSEQKKSEGLITSENEKCDHPAGGIHYEMCIECPPTFSDKREQISENPTEATDIGFGNRCGKPKGPRDPPSEWT
B4: the EGFR-L858R mean in assay [1] came to 1.20. In assay [2], the Wt/L858R was 2.20. For the same molecule, the EGFR-Wt mean in assay [3] is 2.64.

B5: PLCG2 (protein, UniProt P16885 1-1265, looked up)
1-phosphatidylinositol …: MSTTVNVDSLAEYEKSQIKRALELGTVMTVFSFRKSTPERRTVQVIMETRQVAWSKTADKIEGFLDIMEIKEIRPGKNSKDFERAKAVRQKEDCCFTILYGTQFVLSTLSLAADSKEDAVNWLSGLKILHQEAMNASTPTIIESWLRKQIYSVDQTRRNSISLRELKTILPLINFKVSSAKFLKDKFVEIGAHKDELSFEQFHLFYKKLMFEQQKSILDEFKKDSSVFILGNTDRPDASAVYLHDFQRFLIHEQQEHWAQDLNKVRERMTKFIDDTMRETAEPFLFVDEFLTYLFSRENSIWDEKYDAVDMQDMNNPLSHYWISSSHNTYLTGDQLRSESSPEAYIRCLRMGCRCIELDCWDGPDGKPVIYHGWTRTTKIKFDDVVQAIKDHAFVTSSFPVILSIEEHCSVEQQRHMAKAFKEVFGDLLLTKPTEASADQLPSPSQLREKIIIKHKKLGPRGDVDVNMEDKKDEHKQQGELYMWDSIDQKWTRHYCAIADAKLSFSDDIEQTMEEEVPQDIPPTELHFGEKWFHKKVEKRTSAEKLLQEYCMETGGKDGTFLVRESETFPNDYTLSFWRSGRVQHCRIRSTMEGGTLKYYLTDNLTFSSIYALIQHYRETHLRCAEFELRLTDPVPNPNPHESKPWYYDSLSRGEAEDMLMRIPRDGAFLIRKREGSDSYAITFRARGKVKHCRINRDGRHFVLGTSAYFESLVELVSYYEKHSLYRKMRLRYPVTPELLERYNMERDINSLYDVSRMYVDPSEINPSMPQRTVKALYDYKAKRSDELSFCRGALIHNVSKEPGGWWKGDYGTRIQQYFPSNYVEDISTADFEELEKQIIEDNPLGSLCRGILDLNTYNVVKAPQGKNQKSFVFILEPKQQGDPPVEFATDRVEELFEWFQSIREITWKIDTKENNMKYWEKNQSIAIELSDLVVYCKPTSKTKDNLENPDFREIRSFVETKADSIIRQKPVDLLKYNQKGLTRVYPKGQRVDSSNYDPFRLWLCGSQMVALNFQTADKYMQMNHALFSLNGRTGYVLQPESMRTEKYDPMPPESQRKILMTLTVKVLGARHLPKLGRSIACPFVEVEICGAEYDNNKFKTTVVNDNGLSPIWAPTQEKVTFEIYDPNLAFLRFVVYEEDMFSDPNFLAHATYPIKAVKSGFRSVPLKNGYSEDIELASLLVFCEMRPVLESEEELYSSCRQLRRRQEELNNQLFLYDTHQNLRNANRDALVKEFSVNENQLQLYQEKCNKRLREKRVSNSKFYS
In assay [1], B5 returned an EGFR-L858R mean of 2.43. Moreover, the Wt/L858R in assay [2] was determined as 1.64. For the same molecule, the EGFR-Wt mean in assay [3] was determined as 3.99.

B6: PRKCZ (protein, UniProt Q05513 1-592, looked up)
Protein kinase C zeta type: MPSRTGPKMEGSGGRVRLKAHYGGDIFITSVDAATTFEELCEEVRDMCRLHQQHPLTLKWVDSEGDPCTVSSQMELEEAFRLARQCRDEGLIIHVFPSTPEQPGLPCPGEDKSIYRRGARRWRKLYRANGHLFQAKRFNRRAYCGQCSERIWGLARQGYRCINCKLLVHKRCHGLVPLTCRKHMDSVMPSQEPPVDDKNEDADLPSEETDGIAYISSSRKHDSIKDDSEDLKPVIDGMDGIKISQGLGLQDFDLIRVIGRGSYAKVLLVRLKKNDQIYAMKVVKKELVHDDEDIDWVQTEKHVFEQASSNPFLVGLHSCFQTTSRLFLVIEYVNGGDLMFHMQRQRKLPEEHARFYAAEICIALNFLHERGIIYRDLKLDNVLLDADGHIKLTDYGMCKEGLGPGDTTSTFCGTPNYIAPEILRGEEYGFSVDWWALGVLMFEMMAGRSPFDIITDNPDMNTEDYLFQVILEKPIRIPRFLSVKASHVLKGFLNKDPKERLGCRPQTGFSDIKSHAFFRSIDWDLLEKKQALPPFQPQITDDYGLDNFDTQFTSEPVQLTPDDEDAIKRIDQSEFEGFEYINPLLLSTEESV
In turn, B6 came in with an EGFR-L858R mean in assay [1] of 0.89. Also, in assay [2], the Wt/L858R was 2.79. Further, the EGFR-Wt mean in assay [3] came out at 2.49.
